This passage reports Kd results from patent US20220025071A1.

One experiment concerns the target CD20 Lipoparticles (UniProt P11836).
For experiment [1], the target named is Recombinant human Fc gamma receptor IIa, CD32a 131H (human) (UniProt P12318).
Experiment [2] addresses Recombinant human Fc gamma receptor IIa, CD32a 131R (human) (UniProt P12318).
The target in experiment [3] is Recombinant human Fc gamma receptor IIb/c, CD32b/c (human) (UniProt P31994).
Experiment [4] addresses Recombinant human Fc gamma receptor IIIb, CD16b (human) (UniProt O75015).
The target of experiment [5] is Recombinant human Fc gamma receptor I, CD64 (human) (UniProt P12314).
Sequence of Recombinant human Fc gamma receptor I, CD64 (human) (P12314 16-288 limits assumed): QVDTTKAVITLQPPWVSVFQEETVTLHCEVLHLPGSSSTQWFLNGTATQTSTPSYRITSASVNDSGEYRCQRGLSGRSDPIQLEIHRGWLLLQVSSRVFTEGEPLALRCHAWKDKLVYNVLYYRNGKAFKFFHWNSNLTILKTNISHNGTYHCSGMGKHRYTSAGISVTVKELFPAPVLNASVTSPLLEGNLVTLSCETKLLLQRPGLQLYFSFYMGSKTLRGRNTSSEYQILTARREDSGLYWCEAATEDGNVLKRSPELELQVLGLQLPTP
Experiment [6] addresses Recombinant human Fc gamma receptor IIIa, CD16a 158V (human) (UniProt P08637).

Sequence of Recombinant human Fc gamma receptor IIa, CD32a 131R (human) (P12318 36-218 H167R): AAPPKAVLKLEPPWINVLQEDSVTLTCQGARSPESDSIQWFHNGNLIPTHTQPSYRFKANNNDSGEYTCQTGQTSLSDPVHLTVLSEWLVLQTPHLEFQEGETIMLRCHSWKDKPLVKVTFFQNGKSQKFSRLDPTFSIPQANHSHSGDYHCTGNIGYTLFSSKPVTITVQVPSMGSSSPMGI
Sequence of Recombinant human Fc gamma receptor IIIb, CD16b (human) (O75015 17-200 limits assumed): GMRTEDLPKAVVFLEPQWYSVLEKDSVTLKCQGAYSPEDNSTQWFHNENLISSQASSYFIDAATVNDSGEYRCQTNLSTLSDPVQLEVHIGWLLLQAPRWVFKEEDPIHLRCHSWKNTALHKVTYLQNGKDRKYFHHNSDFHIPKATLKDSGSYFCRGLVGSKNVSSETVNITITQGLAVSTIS
Sequence of Recombinant human Fc gamma receptor IIIa, CD16a 158V (human) (P08637 17-208 F176V limits assumed): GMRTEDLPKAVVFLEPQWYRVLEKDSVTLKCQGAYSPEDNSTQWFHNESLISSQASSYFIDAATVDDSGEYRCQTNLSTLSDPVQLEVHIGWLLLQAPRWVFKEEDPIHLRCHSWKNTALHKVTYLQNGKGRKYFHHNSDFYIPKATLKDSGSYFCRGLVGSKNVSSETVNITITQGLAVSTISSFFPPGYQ
Sequence of Recombinant human Fc gamma receptor IIa, CD32a 131H (human) (P12318 36-218): as the sequence (P12318 36-218 H167R) above, with R132H counted along it
Sequence of CD20 Lipoparticles (P11836 whole entry): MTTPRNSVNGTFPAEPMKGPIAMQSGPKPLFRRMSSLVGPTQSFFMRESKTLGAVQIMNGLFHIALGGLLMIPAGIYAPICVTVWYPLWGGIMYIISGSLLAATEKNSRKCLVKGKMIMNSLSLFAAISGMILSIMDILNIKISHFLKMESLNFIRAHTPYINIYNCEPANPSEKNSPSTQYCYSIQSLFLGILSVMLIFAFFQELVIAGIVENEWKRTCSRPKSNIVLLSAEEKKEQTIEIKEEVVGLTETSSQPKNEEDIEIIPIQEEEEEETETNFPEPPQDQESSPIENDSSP
Sequence of Recombinant human Fc gamma receptor IIb/c, CD32b/c (human) (P31994 46-217): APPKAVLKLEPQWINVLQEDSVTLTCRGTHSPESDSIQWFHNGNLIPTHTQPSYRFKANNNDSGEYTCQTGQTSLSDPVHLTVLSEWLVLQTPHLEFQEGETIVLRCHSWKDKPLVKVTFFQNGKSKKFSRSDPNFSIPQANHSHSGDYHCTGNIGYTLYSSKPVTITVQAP

Consider Rituxan (antibody), for which the dissociation constant Kd was less than 0.001 nM in the experiment with CD20 Lipoparticles; 892 nM in experiment [1]; 1250 nM in experiment [2]; 1520 nM in experiment [3]; 1530 nM in experiment [4]; 52.8 nM in experiment [5]. Moreover, in experiment [6], the Kd turned out to be 715 nM.
